According to article PMC3807708:
pKd: −log10 of the molar value.

Columns and labels:
[1] = molecular target: extracellular domain of human interferon-γ receptor 1 (IFN-γ-Rx), wild type (human) (UniProt P15260); assay: SPR; His-tagged receptor immobilised on Ni2+-coated HTG chip; IFN-γ-SC as analyte; PBST; 35 °C; preliminary data of temperature dependency
[2] = molecular target: extracellular domain of human interferon-γ receptor 1 (IFN-γ-Rx), mutant S95R (human) (UniProt P15260); assay: as above
[3] = molecular target: extracellular domain of human interferon-γ receptor 1 (IFN-γ-Rx), mutant N96W (human) (UniProt P15260); assay: as above
[4] = molecular target: extracellular domain of human interferon-γ receptor 1 (IFN-γ-Rx), mutant N70G (human) (UniProt P15260); assay: as above
[5] = molecular target: extracellular domain of human interferon-γ receptor 1 (IFN-γ-Rx), mutant H222R (human) (UniProt P15260); assay: as above
IFN-γ-Rx S71E (human) = IFN-γ-Rx S71E (human) (UniProt P15260); assay: SPR; ProteOn XPR36; His-tagged receptor immobilised on Ni2+-activated HTG chip; IFN-γ-SC as analyte, 1.2 to 99 nM; PBST (PBS pH 7.4, 0.005% Tween20); 25°C; 1:1 Langmuir with drift model; doubly referenced
IFN-γ-Rx H222D (human) = IFN-γ-Rx H222D (human) (UniProt P15260); assay: as above
[6] = molecular target: IFN-γ-Rx N70G + H222R (human) (UniProt P15260); assay: as above
IFN-γ-Rx S95R (human) = IFN-γ-Rx S95R (human) (UniProt P15260); assay: as above
IFN-γ-Rx H222R (human) = IFN-γ-Rx H222R (human) (UniProt P15260); assay: as above
[7] = molecular target: extracellular domain of human interferon-γ receptor 1 (IFN-γ-Rx), wild type (human) (UniProt P15260); assay: SPR; His-tagged receptor immobilised on Ni2+-coated HTG chip; IFN-γ-SC as analyte; PBST; 30 °C; preliminary data of temperature dependency
[8] = molecular target: extracellular domain of human interferon-γ receptor 1 (IFN-γ-Rx), mutant S95R (human) (UniProt P15260); assay: as above
[9] = molecular target: extracellular domain of human interferon-γ receptor 1 (IFN-γ-Rx), mutant N96W (human) (UniProt P15260); assay: as above
[10] = molecular target: extracellular domain of human interferon-γ receptor 1 (IFN-γ-Rx), mutant N70G (human) (UniProt P15260); assay: as above
[11] = molecular target: extracellular domain of human interferon-γ receptor 1 (IFN-γ-Rx), mutant H222R (human) (UniProt P15260); assay: as above
[12] = molecular target: extracellular domain of human interferon-γ receptor 1 (IFN-γ-Rx), wild type (human) (UniProt P15260); assay: SPR; His-tagged receptor immobilised on Ni2+-coated HTG chip; IFN-γ-SC as analyte; PBST; 15 °C; preliminary data of temperature dependency
[13] = molecular target: extracellular domain of human interferon-γ receptor 1 (IFN-γ-Rx), mutant S95R (human) (UniProt P15260); assay: as above
[14] = molecular target: extracellular domain of human interferon-γ receptor 1 (IFN-γ-Rx), mutant N96W (human) (UniProt P15260); assay: as above
[15] = molecular target: extracellular domain of human interferon-γ receptor 1 (IFN-γ-Rx), mutant N70G (human) (UniProt P15260); assay: as above
[16] = molecular target: extracellular domain of human interferon-γ receptor 1 (IFN-γ-Rx), mutant H222R (human) (UniProt P15260); assay: as above

single-chain form of human interferon-γ (IFN-γ-SC) (ligand)
pKd [1]: 7.03 | pKd [2]: 6.82 | pKd [3]: 7.61 | pKd [4]: 7.11 | pKd [5]: 6.99 | fold change of Kd against WT (IFN-γ-Rx S71E (human)): 2 fold | fold change of Kd against WT (IFN-γ-Rx H222D (human)): 2.2 fold | pKd [6]: 7.57 | koff [6]: 0.0391 s⁻¹ | kon [6]: 1.46e+06 M⁻¹ s⁻¹ | pKd (IFN-γ-Rx S95R (human)): 7.16 | koff (IFN-γ-Rx S95R (human)): 0.0454 s⁻¹ | kon (IFN-γ-Rx S95R (human)): 650000 M⁻¹ s⁻¹ | pKd (IFN-γ-Rx H222R (human)): 7.53 | koff (IFN-γ-Rx H222R (human)): 0.0349 s⁻¹ | kon (IFN-γ-Rx H222R (human)): 1.19e+06 M⁻¹ s⁻¹ | pKd [7]: 7.22 | pKd [8]: 6.97 | pKd [9]: 7.91 | pKd [10]: 7.31 | pKd [11]: 7.25 | pKd [12]: 7.77 | pKd [13]: 7.41 | pKd [14]: 8.26 | pKd [15]: 7.83 | pKd [16]: 7.79
